Source: PMC7954794 (2021)

B1: S. cerevisiae Abp1 (full length; SH3 domain 535-592 mutated) / Hua2 (parent complex)
chain 1: MALEPIDYTTHSREIDAEYLKIVRGSDPDTTWLIISPNAKKEYEPESTGSSFHDFLQLFDETKVQYGLARVSPPGSDVEKIIIIGWCPDSAPLKTRASFAANFAAVANNLFKGYHVQVTARDEDDLDENELLMKISNAAGARYSIQTSSKQQGKASTPPVKKSFTPSKSPAPVSKKEPVKTPSPAPAAKISSRVNDNNDDDDWNEPELKERDFDQAPLKPNQSSYKPIGKIDLQKVIAEEKAKEDPRLVQKPTAAGSKIDPSSDIANLKNESKLKRDSEFNSFLGTTKPPSMTESSLKNDDDKVIKGFRNEKSPAQLWAERKAKQNSGNAETKAEAPKPEVPEDEPEGEPDVKDLKSKFEGLAASEKEEEEMENKFAPPPKKSEPTIISPKPFSKPQEPVKAEEAEQPKTDYKKIGNPLPGMHIEADNEEEPEENDDDWDDDEDEAAQPPLPSRNVASGAPVQKEEPEQEEIAPSLPSRNSIPAPKQEEAPEQAPEEEIEEEAEEAAPQLPSRSSAAPPPPPRRATPEKKPKENPWATAEYDYDAAEDNELTFVENDKIINIEFVDDDWWLGELEKDGSKGLFPSNYVSLGN
chain 2: MQQTKFGKMYLDHDSVVEYSEDEIVEADRITLGYKKRLSMIENQMRHLLEDFSLDVQQIEPILADLQKYYDAFLQLLQKRNKSLQCKRSTHQPVPSPMNSQTSTNAKVNLSGKLMKFQLNSVQKFDEENILRILQNKIEFEHYFQIDKGKKQKVLLLAVYQCLNGPTRLHKVLNIEGIIHNNSIRTILGKQVSSSKWTVFLYDVKLVLLAHRQDVPNLETSKMIVRYGDLFPCALYFKDHTAY

Variants of: B1
Test: DHFR protein-fragment complementation in yeast (Abp1-DHFR F[1,2] x partner-DHFR F[3]), deep mutational scanning, second methotrexate selection vs reference; S. cerevisiae, DHFR-PCA selection in liquid with methotrexate at 30 C, two 72 h selections (the score uses the second); reference = the pre-selection culture

screen value | Variant
-0.627 DMS score: mean over two replicates of log2(f_test/f_ref + 0.5)/ln 2, minus the synonymous-codon median (not a log2 … | chain 1 MALEPIDYTTHSREIDAEYLKIVRGSDPDTTWLIISPNAKKEYEPESTGSSFHDFLQLFDETKVQYGLARVSPPGSDVEKIIIIGWCPDSAPLKTRASFAANFAAVANNLFKGYHVQVTARDEDDLDENELLMKISNAAGARYSIQTSSKQQGKASTPPVKKSFTPSKSPAPVSKKEPVKTPSPAPAAKISSRVNDNNDDDDWNEPELKERDFDQAPLKPNQSSYKPIGKIDLQKVIAEEKAKEDPRLVQKPTAAGSKIDPSSDIANLKNESKLKRDSEFNSFLGTTKPPSMTESSLKNDDDKVIKGFRNEKSPAQLWAERKAKQNSGNAETKAEAPKPEVPEDEPEGEPDVKDLKSKFEGLAASEKEEEEMENKFAPPPKKSEPTIISPKPFSKPQEPVKAEEAEQPKTDYKKIGNPLPGMHIEADNEEEPEENDDDWDDDEDEAAQPPLPSRNVASGAPVQKEEPEQEEIAPSLPSRNSIPAPKQEEAPEQAPEEEIEEEAEEAAPQLPSRSSAAPPPPPRRATPEKKPKENPWATAEYKYDAAEDNELTFVENDKIINIEFVDDDWWLGELEKDGSKGLFPSNYVSLGN [chain 1 D542K]
-0.0718 DMS score: mean over two replicates of log2(f_test/f_ref + 0.5)/ln 2, minus the synonymous-codon median (not a log2 … | chain 1 MALEPIDYTTHSREIDAEYLKIVRGSDPDTTWLIISPNAKKEYEPESTGSSFHDFLQLFDETKVQYGLARVSPPGSDVEKIIIIGWCPDSAPLKTRASFAANFAAVANNLFKGYHVQVTARDEDDLDENELLMKISNAAGARYSIQTSSKQQGKASTPPVKKSFTPSKSPAPVSKKEPVKTPSPAPAAKISSRVNDNNDDDDWNEPELKERDFDQAPLKPNQSSYKPIGKIDLQKVIAEEKAKEDPRLVQKPTAAGSKIDPSSDIANLKNESKLKRDSEFNSFLGTTKPPSMTESSLKNDDDKVIKGFRNEKSPAQLWAERKAKQNSGNAETKAEAPKPEVPEDEPEGEPDVKDLKSKFEGLAASEKEEEEMENKFAPPPKKSEPTIISPKPFSKPQEPVKAEEAEQPKTDYKKIGNPLPGMHIEADNEEEPEENDDDWDDDEDEAAQPPLPSRNVASGAPVQKEEPEQEEIAPSLPSRNSIPAPKQEEAPEQAPEEEIEEEAEEAAPQLPSRSSAAPPPPPRRATPEKKPKENPWATAEYDYDAAEDNELTFVENDKIINIEFPDDDWWLGELEKDGSKGLFPSNYVSLGN [chain 1 V565P]
-0.567 DMS score: mean over two replicates of log2(f_test/f_ref + 0.5)/ln 2, minus the synonymous-codon median (not a log2 … | chain 1 MALEPIDYTTHSREIDAEYLKIVRGSDPDTTWLIISPNAKKEYEPESTGSSFHDFLQLFDETKVQYGLARVSPPGSDVEKIIIIGWCPDSAPLKTRASFAANFAAVANNLFKGYHVQVTARDEDDLDENELLMKISNAAGARYSIQTSSKQQGKASTPPVKKSFTPSKSPAPVSKKEPVKTPSPAPAAKISSRVNDNNDDDDWNEPELKERDFDQAPLKPNQSSYKPIGKIDLQKVIAEEKAKEDPRLVQKPTAAGSKIDPSSDIANLKNESKLKRDSEFNSFLGTTKPPSMTESSLKNDDDKVIKGFRNEKSPAQLWAERKAKQNSGNAETKAEAPKPEVPEDEPEGEPDVKDLKSKFEGLAASEKEEEEMENKFAPPPKKSEPTIISPKPFSKPQEPVKAEEAEQPKTDYKKIGNPLPGMHIEADNEEEPEENDDDWDDDEDEAAQPPLPSRNVASGAPVQKEEPEQEEIAPSLPSRNSIPAPKQEEAPEQAPEEEIEEEAEEAAPQLPSRSSAAPPPPPRRATPEKKPKENPWATAEYDYDAAEDNELTFVENDKIINIEFADDDWWLGELEKDGSKGLFPSNYVSLGN [chain 1 V565A]
0.66 DMS score: mean over two replicates of log2(f_test/f_ref + 0.5)/ln 2, minus the synonymous-codon median (not a log2 … | chain 1 MALEPIDYTTHSREIDAEYLKIVRGSDPDTTWLIISPNAKKEYEPESTGSSFHDFLQLFDETKVQYGLARVSPPGSDVEKIIIIGWCPDSAPLKTRASFAANFAAVANNLFKGYHVQVTARDEDDLDENELLMKISNAAGARYSIQTSSKQQGKASTPPVKKSFTPSKSPAPVSKKEPVKTPSPAPAAKISSRVNDNNDDDDWNEPELKERDFDQAPLKPNQSSYKPIGKIDLQKVIAEEKAKEDPRLVQKPTAAGSKIDPSSDIANLKNESKLKRDSEFNSFLGTTKPPSMTESSLKNDDDKVIKGFRNEKSPAQLWAERKAKQNSGNAETKAEAPKPEVPEDEPEGEPDVKDLKSKFEGLAASEKEEEEMENKFAPPPKKSEPTIISPKPFSKPQEPVKAEEAEQPKTDYKKIGNPLPGMHIEADNEEEPEENDDDWDDDEDEAAQPPLPSRNVASGAPVQKEEPEQEEIAPSLPSRNSIPAPKQEEAPEQAPEEEIEEEAEEAAPQLPSRSSAAPPPPPRRATPEKKPKENPWATAEYDYQAAEDNELTFVENDKIINIEFVDDDWWLGELEKDGSKGLFPSNYVSLGN [chain 1 D544Q]
0.339 DMS score: mean over two replicates of log2(f_test/f_ref + 0.5)/ln 2, minus the synonymous-codon median (not a log2 … | chain 1 MALEPIDYTTHSREIDAEYLKIVRGSDPDTTWLIISPNAKKEYEPESTGSSFHDFLQLFDETKVQYGLARVSPPGSDVEKIIIIGWCPDSAPLKTRASFAANFAAVANNLFKGYHVQVTARDEDDLDENELLMKISNAAGARYSIQTSSKQQGKASTPPVKKSFTPSKSPAPVSKKEPVKTPSPAPAAKISSRVNDNNDDDDWNEPELKERDFDQAPLKPNQSSYKPIGKIDLQKVIAEEKAKEDPRLVQKPTAAGSKIDPSSDIANLKNESKLKRDSEFNSFLGTTKPPSMTESSLKNDDDKVIKGFRNEKSPAQLWAERKAKQNSGNAETKAEAPKPEVPEDEPEGEPDVKDLKSKFEGLAASEKEEEEMENKFAPPPKKSEPTIISPKPFSKPQEPVKAEEAEQPKTDYKKIGNPLPGMHIEADNEEEPEENDDDWDDDEDEAAQPPLPSRNVASGAPVQKEEPEQEEIAPSLPSRNSIPAPKQEEAPEQAPEEEIEEEAEEAAPQLPSRSSAAPPPPPRRATPEKKPKENPWATAEYDYDAAEDNELTFVENDKIINIEFVDDDWWLGELEKDHSKGLFPSNYVSLGN [chain 1 G578H]
